From patent publication US5763174
Like-named read-outs stand apart in the source and are kept apart here. Blank lines part the entries; values can stand above or below the substance they belong to.

Key:
[1] = biological target: T1, DRADA (dsRNA adenosine deaminase, purified 93/88/83 kD forms) (Bos taurus) (UniProt F1MUM9); conditions: assay not described; species/form of DRADA not stated in the passage
T1 sequence: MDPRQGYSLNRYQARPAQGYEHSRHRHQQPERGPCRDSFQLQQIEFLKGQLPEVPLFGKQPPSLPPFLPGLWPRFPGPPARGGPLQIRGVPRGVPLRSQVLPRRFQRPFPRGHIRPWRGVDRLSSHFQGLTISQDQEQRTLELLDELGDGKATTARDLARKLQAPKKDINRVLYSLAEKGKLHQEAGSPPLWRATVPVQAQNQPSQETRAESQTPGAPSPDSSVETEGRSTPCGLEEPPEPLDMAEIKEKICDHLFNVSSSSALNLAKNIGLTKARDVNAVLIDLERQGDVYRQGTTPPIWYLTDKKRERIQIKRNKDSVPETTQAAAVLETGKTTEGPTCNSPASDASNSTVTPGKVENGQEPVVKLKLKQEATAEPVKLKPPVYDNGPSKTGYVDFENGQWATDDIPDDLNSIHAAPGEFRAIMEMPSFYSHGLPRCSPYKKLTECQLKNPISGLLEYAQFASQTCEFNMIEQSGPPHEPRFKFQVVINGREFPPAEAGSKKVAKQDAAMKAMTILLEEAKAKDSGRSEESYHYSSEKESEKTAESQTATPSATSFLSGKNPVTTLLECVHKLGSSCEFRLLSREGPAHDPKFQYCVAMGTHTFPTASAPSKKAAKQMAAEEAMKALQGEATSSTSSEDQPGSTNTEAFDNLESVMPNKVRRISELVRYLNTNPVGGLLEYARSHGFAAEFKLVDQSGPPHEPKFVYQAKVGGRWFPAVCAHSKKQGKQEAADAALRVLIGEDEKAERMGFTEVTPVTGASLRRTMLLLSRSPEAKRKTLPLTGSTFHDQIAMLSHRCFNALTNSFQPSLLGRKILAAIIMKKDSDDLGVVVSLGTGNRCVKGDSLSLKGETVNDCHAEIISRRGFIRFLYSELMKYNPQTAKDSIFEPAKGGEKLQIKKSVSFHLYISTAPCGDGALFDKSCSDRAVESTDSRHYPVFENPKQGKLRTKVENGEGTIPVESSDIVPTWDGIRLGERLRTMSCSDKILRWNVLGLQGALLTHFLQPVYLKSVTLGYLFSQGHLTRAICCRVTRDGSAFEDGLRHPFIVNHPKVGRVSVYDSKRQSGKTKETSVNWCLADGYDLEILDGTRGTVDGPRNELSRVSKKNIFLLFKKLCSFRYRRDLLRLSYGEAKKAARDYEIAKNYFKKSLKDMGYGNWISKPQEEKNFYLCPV

[2] = biological target: recombinant F-WT DRADA protein (full-length 140 kD human DRADA protein carrying an epitope-tag peptide FLAG at the NH2-terminal) (human)
[3] = biological target: recombinant F-WT DRADA protein (full-length 140 kD human DRADA protein carrying an epitope-tag peptide FLAG at the NH2-terminal) (human); remark: listed apart in the source
[4] = biological target: T2, F-WT DRADA (Homo sapiens) (UniProt P55265); conditions: editing at intronic +60 site by DRADA alone; no Q/R editing alone, up to 34% Q/R with 293 extract cofactor
T2 sequence: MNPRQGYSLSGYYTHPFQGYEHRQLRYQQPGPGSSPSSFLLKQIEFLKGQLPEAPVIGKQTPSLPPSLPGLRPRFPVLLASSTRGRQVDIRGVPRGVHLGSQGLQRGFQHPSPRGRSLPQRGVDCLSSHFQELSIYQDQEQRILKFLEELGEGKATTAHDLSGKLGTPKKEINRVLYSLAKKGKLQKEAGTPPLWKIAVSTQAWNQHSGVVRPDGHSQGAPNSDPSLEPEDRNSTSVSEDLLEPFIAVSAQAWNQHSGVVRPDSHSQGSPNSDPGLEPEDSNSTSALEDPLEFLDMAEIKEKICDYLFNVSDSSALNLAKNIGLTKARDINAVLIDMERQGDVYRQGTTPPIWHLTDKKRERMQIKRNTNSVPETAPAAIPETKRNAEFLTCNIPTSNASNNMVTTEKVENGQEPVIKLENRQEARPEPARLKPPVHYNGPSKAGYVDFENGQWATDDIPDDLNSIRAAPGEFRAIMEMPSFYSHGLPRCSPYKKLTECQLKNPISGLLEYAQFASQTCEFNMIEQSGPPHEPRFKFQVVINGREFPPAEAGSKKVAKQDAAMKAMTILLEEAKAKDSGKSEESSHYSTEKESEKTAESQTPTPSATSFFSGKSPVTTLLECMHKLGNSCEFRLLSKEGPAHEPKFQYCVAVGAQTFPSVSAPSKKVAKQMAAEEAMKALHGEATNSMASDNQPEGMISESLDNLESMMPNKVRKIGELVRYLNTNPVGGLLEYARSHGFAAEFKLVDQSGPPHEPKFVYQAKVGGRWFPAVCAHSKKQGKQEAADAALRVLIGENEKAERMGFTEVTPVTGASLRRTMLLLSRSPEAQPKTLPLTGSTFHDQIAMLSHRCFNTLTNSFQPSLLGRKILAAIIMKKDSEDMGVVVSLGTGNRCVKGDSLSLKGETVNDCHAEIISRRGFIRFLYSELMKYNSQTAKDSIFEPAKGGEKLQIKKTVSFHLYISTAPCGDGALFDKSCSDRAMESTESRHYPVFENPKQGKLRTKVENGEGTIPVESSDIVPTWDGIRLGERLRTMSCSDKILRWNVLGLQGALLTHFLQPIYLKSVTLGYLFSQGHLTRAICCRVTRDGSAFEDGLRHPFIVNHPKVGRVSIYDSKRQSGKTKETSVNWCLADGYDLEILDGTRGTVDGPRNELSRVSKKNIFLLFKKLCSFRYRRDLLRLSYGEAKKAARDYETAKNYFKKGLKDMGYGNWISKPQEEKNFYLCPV

Substance: 575 bp dsRNA
Kd [1]: 0.23 nM

Q/R site editing of synthetic GluR-B RNA (in vitro editing, primer extension assay) [2]: 14%
Substance: 293 nuclear extract (unidentified cofactor protein(s) of 293 human embryonic kidney cells) (pool or library)

Q/R site editing of synthetic GluR-B RNA (in vitro editing, primer extension assay) [3]: 63%
Substance: HeLa nuclear extract (unidentified cofactor protein(s)) (pool or library)

Substance: GluR-B Bmini RNA (745 nt)
activity [4]: < 79%
